Experiments:
Assay in all cases: purified protein
purified protein [1] = substrate: NCC(=O)O; type: biochemical, Thermus thermophilus; details: amino acid activation, 4 mM ATP, 1 mM PPi, 10 mM MgCl2, pH 7.5, 60 °C
purified protein [2] = substrate: N[C@@H](CO)C(=O)O; details: amino acid activation
purified protein [3] = substrate: C[C@H](N)C(=O)O; details: amino acid activation, pH 7.5
purified protein [4] = substrate: C[C@@H](N)C(=O)O; details: amino acid activation, pH 7.5
purified protein [5] = substrate: N[C@@H](Cc1ccc(O)cc1)C(=O)O; type: biochemical, Thermus thermophilus; details: amino acid activation, 4 mM ATP, 1 mM PPi, 10 mM MgCl2, pH 7.5, 60 °C
purified protein [6] = substrate: N[C@H](Cc1ccc(O)cc1)C(=O)O; type: biochemical, Thermus thermophilus; details: amino acid activation, 4 mM ATP, 1 mM PPi, 10 mM MgCl2, pH 7.5, 60 °C
[7] = 4 mM ATP, 1 mM PPi, 10 mM MgCl2, pH 7.5, 60 °C, pH 7.5, 60.0 °C
[8] = 4 mM ATP, 1 mM PPi, 10 mM MgCl2, pH 7.5, 60 °C, 60.0 °C
[9] = editing-deficient mutant, 37.0 °C

B1: AlaRSTT (Thermus thermophilus alanyl-tRNA-synthetase) (Thermus thermophilus HB27) (protein)
chain: MRTAEIREKFLSFFEGKGHLRLPSFSLIPEDDPSLLFTSAGMAPLKPYFLGAKPIFGGREWRRVTTCQECLRVGDIENVGRTSRHNTYFEMLGNFSFGDYFKKEAILWAWEFLTEHLRLDPGRLWVTVFEDDDEAYEIWRDLVGVPEERIGRFGEDENYWPGGAITHGPNGPSGPCSEIFYDRGPAYGTPDETGPNTGSGDRFVEIWNLVFTQYDRQGPIPGPGILKPLPQKNIDTGMGLYRVAAILQDVEDFYRTDTFFPIIQEVARMSGRPYEGKTSVSHRVIADHVRAVVAALSDGATFSNTGRGYVIRRLLRRALRHGYLLGLSDPFLHRLAPLVAELLGDFYPEMRENLPAVEKQIRLEEERFLETLEGGLKRLDALLSGLKPGEVLPGKEAFRLYDTYGFPLDLTVEIAAERGYGVDTEGFQKAMEEQQSRSRAAMAFEREIFKKGAQVLEELYAERGATEFLGYNALEAEAEVLALLAGDQSLLEAGPGTEVQVVLDKTPFYAEGGGQIGDFGLLEWPGGRARVETTRKTERGIFLHKARVEEGVLRVGERVRAVVDPRRRDTERNHTATHLLHAALRAVLGPHVRQAGSLVAPDRLRFDFTHPEPLKPEELERVELLVNRWIMADFPVTWRYMPLEEARKEGAMALFGEKYGEVVRVVRVEGSPLEGLESKELCGGCHVRRTGEIGAFLIRSEEAVSAGVRRIEAVTGEEAIRFARGSLNRLKALAERLEVGEAALEERLEKLLAELKEKEREVESLKARLVQAALGGGGGASLEEKGGLRWTVAELPGLDAKALRQAADDLVARGADVALVLSGGQAVLKLSPKAQGMGLEAGALFRALAEKAGGRGGGKGALAQGGGLDPRKAREALPGLLP
notes: His-tagged, pET28b, expressed in E. coli BL21(DE3)Star; wild type
Km (purified protein [1]): 22000 ± 8000 µM | kcat (purified protein [1]): 6.5 ± 1.6 s⁻¹ | kcat/Km (purified protein [1]): 290 M⁻¹ s⁻¹ | Km (purified protein [2]; [7]): 10000 ± 2000 µM | kcat (purified protein [2]; [7]): 2.3 s⁻¹ | kcat/Km (purified protein [2]; [7]): 236 M⁻¹ s⁻¹ | Km (purified protein [3]; [8]): 139 ± 12 µM | kcat (purified protein [3]; [8]): 7.88 s⁻¹ | kcat/Km (purified protein [3]; [8]): 56000 M⁻¹ s⁻¹ | Km (purified protein [4]; [8]): 2190 ± 500 µM | kcat (purified protein [4]; [8]): 0.21 s⁻¹ | kcat/Km (purified protein [4]; [8]): 120 M⁻¹ s⁻¹

B2: E. coli C666A AlaRS (Escherichia coli K-12; C666A) (protein)
chain: SKSTAEIRQAFLDFFHSKGHQVVASSSLVPHNDPTLLFTNAGMNQFKDVFLGLDKRNYSRATTSQRCVRAGGKHNDLENVGYTARHHTFFEMLGNFSFGDYFKHDAIQFAWELLTSEKWFALPKERLWVTVYESDDEAYEIWEKEVGIPRERIIRIGDNKGAPYASDNFWQMGDTGPCGPCTEIFYDHGDHIWGGPPGSPEEDGDRYIEIWNIVFMQFNRQADGTMEPLPKPSVDTGMGLERIAAVLQHVNSNYDIDLFRTLIQAVAKVTGATDLSNKSLRVIADHIRSCAFLIADGVMPSNENRGYVLRRIIRRAVRHGNMLGAKETFFYKLVGPLIDVMGSAGEDLKRQQAQVEQVLKTEEEQFARTLERGLALLDEELAKLSGDTLDGETAFRLYDTYGFPVDLTADVCRERNIKVDEAGFEAAMEEQRRRAREASGFGADYNAMIRVDSASEFKGYDHLELNGKVTALFVDGKAVDAINAGQEAVVVLDQTPFYAESGGQVGDKGELKGANFSFAVEDTQKYGQAIGHIGKLAAGSLKVGDAVQADVDEARRARIRLNHSATHLMHAALRQVLGTHVSQKGSLVNDKVLRFDFSHNEAMKPEEIRAVEDLVNTQIRRNLPIETNIMDLEAAKAKGAMALFGEKYDERVRVLSMGDFSTELAGGTHASRTGDIGLFRIISESGTAAGVRRIEAVTGEGAIATVHADSDRLSEVAHLLKGDSNNLADKVRSVLERTRQLEKELQQLKEQAAAQESANLSSKAIDVNGVKLLVSELSGVEPKMLRTMVDDLKNQLGSTIIVLATVVEGKVSLIAGVSKDVTDRVKAGELIGMVAQQVGGKGGGRPDMAQAGGTDAAALPAALASVKGWVSAKLQ
Km (purified protein [2]; editing-deficient mutant): 27000 ± 6000 µM | kcat (purified protein [2]; editing-deficient mutant): 0.147 ± 0.04 s⁻¹ | Km (purified protein [3]; [9]): 304 ± 43 µM | kcat (purified protein [3]; [9]): 0.18 s⁻¹ | kcat/Km (purified protein [3]; [9]): 600 M⁻¹ s⁻¹ | Km (purified protein [4]; [9]): 60000 ± 20000 µM | kcat (purified protein [4]; [9]): 0.1 s⁻¹ | kcat/Km (purified protein [4]; [9]): 1.8 M⁻¹ s⁻¹

B3: TyrRSTT (T. thermophilus tyrosyl-tRNA-synthetase) (Thermus thermophilus HB27) (protein)
chain: MAGTGHTPEEALALLKRGAEEIVPEEELLAKLKEGRPLTVKLGADPTRPDLHLGHAVVLRKMRQFQELGHKVVLIIGDFTGMIGDPSGRSKTRPPLTLEETRENAKTYVAQAGKILRQEPHLFELRYNSEWLEGLTFKEVVRLTSLMTVAQMLEREDFKKRYEAGIPISLHELLYPFAQAYDSVAIRADVEMGGTDQRFNLLVGREVQRAYGQSPQVCFLMPLLVGLDGREKMSKSLDNYIGLTEPPEAMFKKLMRVPDPLLPSYFRLLTDLEEEEIEALLKAGPVPAHRVLARLLTAAYALPQIPPRIDRAFYESLGYAWEAFGRDKEAGPEEVRRAEARYDEVAKGGIPEEIPEVTIPASELKEGRIWVARLFTLAGLTPSNAEARRLIQNRGLRLDGEVLTDPMLQVDLSRPRILQRGKDRFVRVRLSD
notes: wild type
Km (purified protein [5]): 9 ± 2 µM | kcat (purified protein [5]): 17.4 ± 3.9 s⁻¹ | kcat/Km (purified protein [5]): 1.93e+06 M⁻¹ s⁻¹ | Km (purified protein [6]): 27.6 ± 7.5 µM | kcat (purified protein [6]): 2.2 ± 0.65 s⁻¹ | kcat/Km (purified protein [6]): 80000 M⁻¹ s⁻¹
